Holding throughout (assay): SPR (Biacore 8K, Protein A chip; His-tagged antigen as analyte; 1:1 Langmuir fit)
In assay [1] the target is fasEGFR-His (ACROBiosystems Inc., Cat #: EGR-C52H5) (monkey). The source says:
(§1) Dissociation was monitored for 400 seconds.

Assay [2] deals with T1, hEGFR-His (ACROBiosystems Inc., Cat #: EGR-H5222) (human, UniProt P00533 25-645).
T1 construct: Bought reagent; also called human EGFR; not shown: His tag
Text: as §1

Assay [3] concerns the target T2, hMET-His (ACROBiosystems Inc., Cat #: MET-H5227) (human, UniProt P08581 25-932).
T2 construct: Bought reagent; also called human MET; not shown: His tag
Text: as §1

T2 sequence (P08581 25-932 limits assumed): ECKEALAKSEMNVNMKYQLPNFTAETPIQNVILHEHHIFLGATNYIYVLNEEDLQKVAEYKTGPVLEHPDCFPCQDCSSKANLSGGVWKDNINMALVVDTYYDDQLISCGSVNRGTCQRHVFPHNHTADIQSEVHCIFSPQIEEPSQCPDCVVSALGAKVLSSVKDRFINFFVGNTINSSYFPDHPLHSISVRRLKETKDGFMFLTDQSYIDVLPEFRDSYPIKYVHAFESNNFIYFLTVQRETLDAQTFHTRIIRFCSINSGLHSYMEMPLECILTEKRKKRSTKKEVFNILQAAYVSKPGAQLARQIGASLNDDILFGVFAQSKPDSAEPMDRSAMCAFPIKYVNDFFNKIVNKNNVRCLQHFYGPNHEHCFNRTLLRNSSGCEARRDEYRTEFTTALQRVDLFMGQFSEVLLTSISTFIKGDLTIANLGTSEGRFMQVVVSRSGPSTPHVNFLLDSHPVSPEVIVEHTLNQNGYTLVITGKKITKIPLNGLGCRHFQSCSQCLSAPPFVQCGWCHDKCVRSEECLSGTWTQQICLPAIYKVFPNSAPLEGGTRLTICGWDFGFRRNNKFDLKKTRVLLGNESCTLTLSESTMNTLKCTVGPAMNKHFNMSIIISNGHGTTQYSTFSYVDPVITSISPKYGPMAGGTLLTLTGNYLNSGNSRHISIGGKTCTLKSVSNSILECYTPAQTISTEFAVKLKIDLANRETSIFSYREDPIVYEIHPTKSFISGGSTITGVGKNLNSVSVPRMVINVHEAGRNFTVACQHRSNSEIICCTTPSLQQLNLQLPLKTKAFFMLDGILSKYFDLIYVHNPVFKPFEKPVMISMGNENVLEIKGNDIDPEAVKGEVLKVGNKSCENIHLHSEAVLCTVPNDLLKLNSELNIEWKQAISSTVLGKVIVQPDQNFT

B1: E-6C4-M-2F11 (bispecific antibody, human IgG1, kappa)
heavy 1: not shown
heavy 2: EVQLVESGPGLVKPSETLSLTCTVSGGSISSNYWSWIRQPPGKGLEWIGYIYHSGSTNYNPSLKSRVTISVDTSKNQFSLKLSSVTAADTAVYFCARGPVSIFGVVKYIDLWGRGTLVTVSSASTKGPSVFPLAPSSKSTSGGTAALGCLVKDYFPEPVTVSWNSGALTSGVHTFPAVLQSSGLYSLSSVVTVPSSSLGTQTYICNVNHKPSNTKVDKKVEPKSCDKTHTCPPCPAPELLGGPSVFLFPPKPKDTLMISRTPEVTCVVVDVSHEDPEVKFNWYVDGVEVHNAKTKPREEQYNSTYRVVSVLTVLHQDWLNGKEYKCKVSNKALPAPIEKTISKAKGQPREPQVCTLPPSREEMTKNQVSLSCAVKGFYPSDIAVEWESNGQPENNYKTTPPVLDSDGSFFLVSKLTVDKSRWQQGNVFSCSVMHEALHNHYTQKSLSLSPGK
light: not shown
notes: 1+1 knobs-into-holes bispecific with common light chain; also called anti-EGFR/MET bispecific antibody E-6C4-M-2F11
Broadly, the Kd is the concentration at which binding is half-saturated. A high value points to weaker binding. A word on the koff: it is the rate constant with which the complex falls apart. For orientation: kon means the rate constant with which the complex forms. Take B1: in assay [1], the affinity, expressed as Kd, was 115 nM; the koff is 0.0198 s⁻¹; the kon worked out at 172000 M⁻¹ s⁻¹. In assay [2], this molecule displayed a Kd of 70.7 nM, a dissociation rate constant (koff) of 0.0215 s⁻¹ and an on-rate constant (kon) of 304000 M⁻¹ s⁻¹. In addition, in assay [3], the Kd is 50.5 nM, the koff turned out to be 0.00187 s⁻¹ and the on-rate (kon) stood at 37000 M⁻¹ s⁻¹.

B2: E-6C4 (antibody, V domains shown)
VH: QVQLQQWGPGLVKPSQTLSLTCTVSGGSINSGDYYWSWIRQPPGKGLESIGYIYYSGSTYYNPSLKSRVTISADTSKNQFSLKLTSVTAADTAVYYCARERVYSSSLDYWGQGTLVTVSS
VL: not shown
notes: Anti-EGFR human monoclonal antibody from RenLite mice with the common light chain
In turn, B2 gave a Kd in assay [1] of 158 nM.

Source of the values: patent publication US20250122292A1 (DOMA BIOPHARMACEUTICAL SUZHOU, published 2025).
